Legend:
[1] = biological target: GRFT-resistant envelope Du179 GRFT c17 (R); assay: cell-based or functional assay
[2] = biological target: GRFT-resistant envelope Du156R18 (R); assay: cell-based or functional assay
[3] = biological target: HIV envelope glycoprotein gp120 (HIV); assay: ITC
[4] = biological target: Env of HIV-1RF virus (HIV-1 RF); assay: cell-based or functional assay
[5] = biological target: HIV envelope glycoprotein gp120 (HIV); assay: ITC, 30 °C, tandemer (180 µM) titrated into gp120 (2.5 µM)
[6] = biological target: HIV-1 subtype B envelope QH0692.42 (HIV-1 subtype B); assay: cell-based or functional assay
[7] = biological target: HIV-1 subtype B envelope CAAN5342.A2 (HIV-1 subtype B); assay: cell-based or functional assay
[8] = biological target: HIV-1 subtype C envelope Du179.14 (HIV-1 subtype C); assay: cell-based or functional assay
[9] = biological target: HIV-1 subtype A envelope Q23.17 (HIV-1 subtype A); assay: cell-based or functional assay
[10] = biological target: HIV-1 subtype C envelope CAP206.8 (HIV-1 subtype C); assay: cell-based or functional assay
[11] = biological target: HIV-1 subtype A envelope Q168.a2 (HIV-1 subtype A); assay: cell-based or functional assay
[12] = biological target: HIV-1 subtype C envelope DU151.2 (HIV-1 subtype C); assay: cell-based or functional assay
[13] = biological target: HIV-1 subtype B envelope JR-FL (HIV-1 subtype B); assay: cell-based or functional assay
[14] = biological target: HIV-1 subtype C envelope COT6.15 (HIV-1 subtype C); assay: cell-based or functional assay
[15] = biological target: HIV-1 subtype B envelope PVO.4 (HIV-1 subtype B); assay: cell-based or functional assay
[16] = biological target: HIV-1 subtype C envelope Du156.12 (HIV-1 subtype C); assay: cell-based or functional assay
[17] = biological target: HIV envelope glycoprotein gp120 (HIV); assay: ITC, 30 °C, lectin titrated into gp120

Binder | IC50 (pseudovirus neutralization, JC53bl-13 cells) [1] [nM] | fold reduction in activity between the WT (Du179.14) and R viruses [1] [fold] | IC50 (pseudovirus neutralization, JC53bl-13 cells) [2] [nM] | fold reduction in activity between the WT (Du156.12) and R viruses [2] [fold] | enthalpy/entropy compensation (ΔH/ΔS) ratio [3] | Anti-HIV EC50 (XTT cytopathicity assay, HIV-1RF, CEM-SS cells) [4] [nM] | Kd [5] [nM] | TΔS [5] [kcal/mol] | ΔG [5] [kcal/mol] | IC50 (pseudovirus neutralization, JC53bl-13 cells) [6] [nM] | IC50 (pseudovirus neutralization, JC53bl-13 cells) [7] [nM] | IC50 (pseudovirus neutralization, JC53bl-13 cells) [8] [nM] | IC50 (pseudovirus neutralization, JC53bl-13 cells) [9] [nM] | IC50 (pseudovirus neutralization, JC53bl-13 cells) [10] [nM] | IC50 (pseudovirus neutralization, JC53bl-13 cells) [11] [nM] | IC50 (pseudovirus neutralization, JC53bl-13 cells) [12] [nM] | IC50 (pseudovirus neutralization, JC53bl-13 cells) [13] [nM] | IC50 (pseudovirus neutralization, JC53bl-13 cells) [14] [nM] | IC50 (pseudovirus neutralization, JC53bl-13 cells) [15] [nM] | IC50 (pseudovirus neutralization, JC53bl-13 cells) [16] [nM] | further results
3mGRFT (3mG) (mGRFT-GlyThrGly-mGRFT-GlyThrGly-mGRFT) (designed binder) SSTHRKFGGSGGSPFSGSGLSSIAVRSGSYLDAIIIDGVHHGGSGGNLSPTFTFGSGEYISNMTIRSGDYIDNISFETNMGRRFGPYGGSGGSANTLSNVKVIQINGSAGDYLDSLDIYYEQYGTGSSTHRKFGGSGGSPFSGSGLSSIAVRSGSYLDAIIIDGVHHGGSGGNLSPTFTFGSGEYISNMTIRSGDYIDNISFETNMGRRFGPYGGSGGSANTLSNVKVIQINGSAGDYLDSLDIYYEQYGTGSSTHRKFGGSGGSPFSGSGLSSIAVRSGSYLDAIIIDGVHHGGSGGNLSPTFTFGSGEYISNMTIRSGDYIDNISFETNMGRRFGPYGGSGGSANTLSNVKVIQINGSAGDYLDSLDIYYEQY | 3.86 | 31 | 1.11 | 14 | 1.19 | 0.001 | 3 | -62.7 | -11.8 | 0.223 | 0.326 | 0.124 | 0.462 | 0.181 | 0.331 | 0.308 | 0.325 | 0.412 | 0.27 | 0.0794 | ΔH [5]: -74.4 kcal/mol
monomeric griffithsin mGRFT (1GS-S, PDB ID 3LL2) (designed binder, also called IGS-S; GRFT monomer) SSTHRKFGGSGGSPFSGSGLSSIAVRSGSYLDAIIIDGVHHGGSGGNLSPTFTFGSGEYISNMTIRSGDYIDNISFETNMGRRFGPYGGSGGSANTLSNVKVIQINGSAGDYLDSLDIYYEQY |  |  |  |  |  | 119 |  |  |  |  |  |  |  |  |  |  |  |  |  |  | Kd [17]: 112 nM; TΔS [17]: -26 kcal/mol; ΔG [17]: -9.47 kcal/mol; ΔH [17]: -35.5 kcal/mol
4mGRFT (4mG) (mGRFT-GlyThrGly-mGRFT-GlyThrGly-mGRFT-GlyThrGly-mGRFT) (designed binder) SSTHRKFGGSGGSPFSGSGLSSIAVRSGSYLDAIIIDGVHHGGSGGNLSPTFTFGSGEYISNMTIRSGDYIDNISFETNMGRRFGPYGGSGGSANTLSNVKVIQINGSAGDYLDSLDIYYEQYGTGSSTHRKFGGSGGSPFSGSGLSSIAVRSGSYLDAIIIDGVHHGGSGGNLSPTFTFGSGEYISNMTIRSGDYIDNISFETNMGRRFGPYGGSGGSANTLSNVKVIQINGSAGDYLDSLDIYYEQYGTGSSTHRKFGGSGGSPFSGSGLSSIAVRSGSYLDAIIIDGVHHGGSGGNLSPTFTFGSGEYISNMTIRSGDYIDNISFETNMGRRFGPYGGSGGSANTLSNVKVIQINGSAGDYLDSLDIYYEQYGTGSSTHRKFGGSGGSPFSGSGLSSIAVRSGSYLDAIIIDGVHHGGSGGNLSPTFTFGSGEYISNMTIRSGDYIDNISFETNMGRRFGPYGGSGGSANTLSNVKVIQINGSAGDYLDSLDIYYEQY | 2.08 | 22 | 0.688 | 8 |  | 0.0012 |  |  |  | 0.17 | 0.232 | 0.0934 | 0.276 | 0.164 | 0.273 | 0.3 | 0.287 | 0.273 | 0.185 | 0.0887 | 
2mGRFT^long (2mG3) (mGRFT-GlyThrGlyGlyThrGlyGlyThrGly-mGRFT) (designed binder, also called 2mGRFT3; 2mrG3) SSTHRKFGGSGGSPFSGSGLSSIAVRSGSYLDAIIIDGVHHGGSGGNLSPTFTFGSGEYISNMTIRSGDYIDNISFETNMGRRFGPYGGSGGSANTLSNVKVIQINGSAGDYLDSLDIYYEQYGTGGTGGTGSSTHRKFGGSGGSPFSGSGLSSIAVRSGSYLDAIIIDGVHHGGSGGNLSPTFTFGSGEYISNMTIRSGDYIDNISFETNMGRRFGPYGGSGGSANTLSNVKVIQINGSAGDYLDSLDIYYEQY | 34.4 | 239 | 26 | 422 | 1.33 | 0.0026 | 3 | -35.4 | -11.8 | 0.513 | 16.9 | 0.144 | 7.16 | 0.696 | 5.28 | 1.7 | 5.77 | 2.52 | 0.558 | 0.0616 | ΔH [5]: -47.2 kcal/mol
2mGRFT (2mG) (mGRFT-GlyThrGly-mGRFT) (designed binder) SSTHRKFGGSGGSPFSGSGLSSIAVRSGSYLDAIIIDGVHHGGSGGNLSPTFTFGSGEYISNMTIRSGDYIDNISFETNMGRRFGPYGGSGGSANTLSNVKVIQINGSAGDYLDSLDIYYEQYGTGSSTHRKFGGSGGSPFSGSGLSSIAVRSGSYLDAIIIDGVHHGGSGGNLSPTFTFGSGEYISNMTIRSGDYIDNISFETNMGRRFGPYGGSGGSANTLSNVKVIQINGSAGDYLDSLDIYYEQY | 36 | 228 | 27.1 | 1490 | 1.16 | 0.0027 | 5 | -59.9 | -11.6 | 0.202 | 5.27 | 0.158 | 7.26 | 0.178 | 1.55 | 0.694 | 2.09 | 1.46 | 0.301 | 0.0182 | ΔH [5]: -69.6 kcal/mol
